Publication PMC7199903

Biological target: recombinant soluble SARS-CoV-2 spike (S) glycoprotein, prefusion-stabilised trimer (2P, GSAS, C-terminal trimerization motif) (SARS-CoV-2)
Test: negative-stain EM

Question: How did the stoichiometry N turn out when “recombinant soluble SARS-CoV-2 spike (S) glycoprotein, prefusion-stabilised trimer (2P, GSAS, C-terminal trimerization motif) (domain or fragment)” was run?
Answer: 3
